Experimental data published in publication PMC3021515.

Legend:
[1] = molecular target: DmD1525E (Drosophila) (UniProt P35500)
[2] = molecular target: DmD838C (Drosophila) (UniProt P35500)
[3] = molecular target: DmE1523N (Drosophila) (UniProt P35500)
[4] = molecular target: DmE896C (Drosophila) (UniProt P35500)
[5] = molecular target: DmG904N (Drosophila) (UniProt P35500)
[6] = molecular target: DmI1529K (Drosophila) (UniProt P35500)
[7] = molecular target: DmL899C (Drosophila) (UniProt P35500)
[8] = molecular target: DmNav1 (Drosophila) (UniProt P35500)
[9] = molecular target: mNav1.6 (mouse) (UniProt Q9WTU3)
[10] = molecular target: rNav1.2 (rat) (UniProt P04775)
[11] = molecular target: rNav1.3 (rat) (UniProt P08104)
[12] = molecular target: DmD1525E (Drosophila) (UniProt P35500); remark: listed apart in the source
[13] = molecular target: DmD838C (Drosophila) (UniProt P35500); remark: listed apart in the source
[14] = molecular target: DmE1523N (Drosophila) (UniProt P35500); remark: listed apart in the source
[15] = molecular target: DmE896C (Drosophila) (UniProt P35500); remark: listed apart in the source
[16] = molecular target: DmG904N (Drosophila) (UniProt P35500); remark: listed apart in the source
[17] = molecular target: DmI1529K (Drosophila) (UniProt P35500); remark: listed apart in the source
[18] = molecular target: DmI1529K/R1530Y (Drosophila) (UniProt P35500)
[19] = molecular target: DmI1534L (Drosophila) (UniProt P35500)
[20] = molecular target: DmK1526L (Drosophila) (UniProt P35500)
[21] = molecular target: DmL899C (Drosophila) (UniProt P35500); remark: listed apart in the source
[22] = molecular target: DmM5 (Drosophila) (UniProt P35500)
[23] = molecular target: DmNav1 (Drosophila) (UniProt P35500); remark: listed apart in the source
[24] = molecular target: DmR1530Y (Drosophila) (UniProt P35500)
[25] = molecular target: DmT1532D (Drosophila) (UniProt P35500)
[26] = molecular target: L(1.2)DmNav1 (Drosophila) (UniProt P35500)
[27] = molecular target: L(Dm)Nav1.2 (rat) (UniProt P04775)
[28] = molecular target: mNav1.6 (mouse) (UniProt Q9WTU3); remark: listed apart in the source
[29] = molecular target: rNav1.2 (rat) (UniProt P04775); remark: listed apart in the source
[30] = molecular target: rNav1.3 (rat) (UniProt P08104); remark: listed apart in the source
[31] = molecular target: rNav1.3 (rat) (UniProt P08104); remark: listed apart in the source
[32] = molecular target: DmI1529K (Drosophila) (UniProt P35500); remark: listed apart in the source

## BmK IT2 (natural protein)
[1]
  EC50 of BmK IT2 from the currents it induces at −40 mV (activation threshold), two-electrode voltage clamp, Xenopus oocytes: 3.3 µM
[2]
  EC50 of BmK IT2 from the currents it induces at −40 mV (activation threshold), two-electrode voltage clamp, Xenopus oocytes: 3.6 µM
[3]
  EC50 of BmK IT2 from the currents it induces at −40 mV (activation threshold), two-electrode voltage clamp, Xenopus oocytes: 2.4 µM
[4]
  EC50 of BmK IT2 from the currents it induces at −40 mV (activation threshold), two-electrode voltage clamp, Xenopus oocytes: > 35 µM
[5]
  EC50 of BmK IT2 from the currents it induces at −40 mV (activation threshold), two-electrode voltage clamp, Xenopus oocytes: > 50 µM
[6]
  EC50 of BmK IT2 from the currents it induces at −40 mV (activation threshold), two-electrode voltage clamp, Xenopus oocytes: 15.6 µM
[7]
  EC50 of BmK IT2 from the currents it induces at −40 mV (activation threshold), two-electrode voltage clamp, Xenopus oocytes: > 35 µM
[8]
  EC50 of BmK IT2 from the currents it induces at −40 mV (activation threshold), two-electrode voltage clamp, Xenopus oocytes: 2.9 µM
[9]
  EC50 of BmK IT2 from the currents it induces at −40 mV (activation threshold), two-electrode voltage clamp, Xenopus oocytes: > 50 µM
[10]
  EC50 of BmK IT2 from the currents it induces at −40 mV (activation threshold), two-electrode voltage clamp, Xenopus oocytes: > 50 µM
[11]
  EC50 of BmK IT2 from the currents it induces at −40 mV (activation threshold), two-electrode voltage clamp, Xenopus oocytes: > 20 µM
[12]
  shift of the half-maximal activation voltage (ΔV1/2) by 2 µM BmK IT2 with prepulse, two-electrode voltage clamp, Xenopus oocytes: -9.73 mV
[13]
  shift of the half-maximal activation voltage (ΔV1/2) by 2 µM BmK IT2 with prepulse, two-electrode voltage clamp, Xenopus oocytes: -10.4 mV
[14]
  shift of the half-maximal activation voltage (ΔV1/2) by 2 µM BmK IT2 with prepulse, two-electrode voltage clamp, Xenopus oocytes: -12.1 mV
[15]
  shift of the half-maximal activation voltage (ΔV1/2) by 2 µM BmK IT2 with prepulse, two-electrode voltage clamp, Xenopus oocytes: -1.86 mV
[16]
  shift of the half-maximal activation voltage (ΔV1/2) by 2 µM BmK IT2 with prepulse, two-electrode voltage clamp, Xenopus oocytes: 0.66 mV
[17]
  shift of the half-maximal activation voltage (ΔV1/2) by 2 µM BmK IT2 with prepulse, two-electrode voltage clamp, Xenopus oocytes: 0.12 mV
[18]
  shift of the half-maximal activation voltage (ΔV1/2) by 2 µM BmK IT2 with prepulse, two-electrode voltage clamp, Xenopus oocytes: -5.06 mV
[19]
  shift of the half-maximal activation voltage (ΔV1/2) by 2 µM BmK IT2 with prepulse, two-electrode voltage clamp, Xenopus oocytes: -7.99 mV
[20]
  shift of the half-maximal activation voltage (ΔV1/2) by 2 µM BmK IT2 with prepulse, two-electrode voltage clamp, Xenopus oocytes: -12.3 mV
[21]
  shift of the half-maximal activation voltage (ΔV1/2) by 2 µM BmK IT2 with prepulse, two-electrode voltage clamp, Xenopus oocytes: -1.39 mV
[22]
  shift of the half-maximal activation voltage (ΔV1/2) by 2 µM BmK IT2 with prepulse, two-electrode voltage clamp, Xenopus oocytes: -6.56 mV
[23]
  shift of the half-maximal activation voltage (ΔV1/2) by 2 µM BmK IT2 with prepulse, two-electrode voltage clamp, Xenopus oocytes: -11.9 mV
[24]
  shift of the half-maximal activation voltage (ΔV1/2) by 2 µM BmK IT2 with prepulse, two-electrode voltage clamp, Xenopus oocytes: -5.11 mV
[25]
  shift of the half-maximal activation voltage (ΔV1/2) by 2 µM BmK IT2 with prepulse, two-electrode voltage clamp, Xenopus oocytes: -9.44 mV
[26]
  shift of the half-maximal activation voltage (ΔV1/2) by 2 µM BmK IT2 with prepulse, two-electrode voltage clamp, Xenopus oocytes: -12.5 mV
[27]
  shift of the half-maximal activation voltage (ΔV1/2) by 2 µM BmK IT2 with prepulse, two-electrode voltage clamp, Xenopus oocytes: -5.05 mV
[28]
  shift of the half-maximal activation voltage (ΔV1/2) by 2 µM BmK IT2 with prepulse, two-electrode voltage clamp, Xenopus oocytes: 0.32 mV
[29]
  shift of the half-maximal activation voltage (ΔV1/2) by 2 µM BmK IT2 with prepulse, two-electrode voltage clamp, Xenopus oocytes: 1.14 mV
[30]
  shift of the half-maximal activation voltage (ΔV1/2) by 2 µM BmK IT2 with prepulse, two-electrode voltage clamp, Xenopus oocytes: 0.9 mV
[31]
  shift of the half-maximal activation voltage (ΔV1/2) by 50 µM BmK IT2, two-electrode voltage clamp, Xenopus oocytes (data not shown): -4.84 mV
[32]
  EC50 of BmK IT2 from the currents it induces at −40 mV (activation threshold), two-electrode voltage clamp, Xenopus oocytes (unit as printed in the text; the table gives µM): 0.0156 µM
